Substitutions are numbered along the chain they refer to. Numbers in names are those of the source.

Experimental findings from US20210388087A1 (Chugai, published 2021) are described below.

To fix the notation:
T1: Human CD3eg linker (human)
T1 construct: Single chain: CD3 epsilon and gamma subunits joined by a 29-mer linker, Flag-tag at the C-terminus; also called recombinant human CD3
T1 chain: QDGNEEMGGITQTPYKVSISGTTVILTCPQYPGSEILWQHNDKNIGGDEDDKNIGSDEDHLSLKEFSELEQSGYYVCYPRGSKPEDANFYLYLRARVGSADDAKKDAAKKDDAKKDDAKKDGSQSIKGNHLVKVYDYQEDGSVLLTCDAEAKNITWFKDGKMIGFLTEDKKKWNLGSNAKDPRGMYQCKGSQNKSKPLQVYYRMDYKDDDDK

B1: Dual-Fab H183/L072 variant with single light chain mutation R54Y (Kabat) (antibody, name in Kabat numbering, V domains shown)
VH: QVQLVESGGGLVQPGRSLRLSCAASGFTFSNAWMHWVRQAPGKGLEWVAQIKDKGNAYAAYYAPSVKGRFTISRDDSKNSIYLQMNSLKTEDTAVYYCHYVHYASASTVLPAFGVDAWGQGTTVTVSS
VL: DIVMTQSPLSLPVTPGEPASISCQASQELVHMNRNTYLHWYQQKPGQAPRLLIYKVSNYFPGVPDRFSGSGSGTDFTLKISRVEAEDVGVYYCAQGTSVPFTFGQGTKLEIK
notes: expressed as an antibody in Expi293 and purified on Protein A; also called dBBDu183H / dBBDu072L R54Y
B2: Dual-Fab H183/L072 variant with single light chain mutation S93Y (Kabat) (antibody, name in Kabat numbering, V domains shown)
VH: B1 VH
VL: B1 VL with Y59R, S98Y
notes: expressed as an antibody in Expi293 and purified on Protein A; also called dBBDu183H / dBBDu072L S93Y
B3: Dual-Fab H183/L072 variant with single light chain mutation T92Y (Kabat) (antibody, name in Kabat numbering, V domains shown)
VH: B1 VH
VL: B1 VL with Y59R, T97Y
notes: expressed as an antibody in Expi293 and purified on Protein A; also called dBBDu183H / dBBDu072L T92Y
B4: Dual-Fab H183/L072 variant with single light chain mutation P95Y (Kabat) (antibody, name in Kabat numbering, V domains shown)
VH: B1 VH
VL: B1 VL with Y59R, P100Y
notes: expressed as an antibody in Expi293 and purified on Protein A; also called dBBDu183H / dBBDu072L P95Y
B5: H183/L072 with P56Y (Kabat) in VL dBBDu072L (antibody, name in Kabat numbering, V domains shown)
VH: B1 VH
VL: B1 VL with Y59R, P61Y
notes: Single-mutation variant of H183L072
B6: H183/L072 with R54Y (Kabat) in VL dBBDu072L (antibody, name in Kabat numbering, V domains shown)
VH: B1 VH
VL: B1 VL
notes: as for B5
B7: H183/L072 with V94Y (Kabat) in VL dBBDu072L (antibody, name in Kabat numbering, V domains shown)
VH: B1 VH
VL: B1 VL with Y59R, V99Y
notes: as for B5
B8: H183/L072 with F55Y (Kabat) in VL dBBDu072L (antibody, name in Kabat numbering, V domains shown)
VH: B1 VH
VL: B1 VL with Y59R, F60Y
notes: as for B5
B9: H183/L072 with A89Y (Kabat) in VL dBBDu072L (antibody, name in Kabat numbering, V domains shown)
VH: B1 VH
VL: B1 VL with Y59R, A94Y
notes: as for B5
B10: H183/L072 with N53Y (Kabat) in VL dBBDu072L (antibody, name in Kabat numbering, V domains shown)
VH: B1 VH
VL: B1 VL with N58Y, Y59R
notes: as for B5
B11: H183/L072 with T97Y (Kabat) in VL dBBDu072L (antibody, name in Kabat numbering, V domains shown)
VH: B1 VH
VL: B1 VL with Y59R, T102Y
notes: as for B5
B12: H183/L072 with S93Y (Kabat) in VL dBBDu072L (antibody, name in Kabat numbering, V domains shown)
VH: B1 VH
VL: B1 VL with Y59R, S98Y
notes: as for B5
B13: H183/L072 with S52Y (Kabat) in VL dBBDu072L (antibody, name in Kabat numbering, V domains shown)
VH: B1 VH
VL: B1 VL with S57Y, Y59R
notes: as for B5
B14: H183/L072 with F96Y (Kabat) in VL dBBDu072L (antibody, name in Kabat numbering, V domains shown)
VH: B1 VH
VL: B1 VL with Y59R, F101Y
notes: as for B5

T2 sequence (chain, as listed by the source limits assumed): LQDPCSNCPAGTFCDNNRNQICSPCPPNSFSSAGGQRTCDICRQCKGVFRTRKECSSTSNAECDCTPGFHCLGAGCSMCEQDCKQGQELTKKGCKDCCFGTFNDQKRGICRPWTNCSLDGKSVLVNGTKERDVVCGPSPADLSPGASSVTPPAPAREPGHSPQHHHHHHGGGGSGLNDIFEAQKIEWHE

One experiment concerns the target T2, Human CD137 ECD (human).
T2 construct: also called human CD137 extracellular domain; hCD137
Put plainly: SPR (Biacore), affinity of single-mutation variant against parental H183/L072.
Turning to B1, the “fold change of affinity for CD137” value worked out at 0.2 fold. Consider B2, for which the “fold change of affinity for CD137” value worked out at 0.8 fold. For B3, the “fold change of affinity for CD137” value is 0 fold.

With B4, the “fold change of affinity for CD137” value came to 0 fold.

The next experiment deals with T1, Human CD3eg linker. As to the kind of experiment: affinity relative to template H183/L072, single-mutation scan.
On to B5, for which the “fold change of affinity for CD3” value is 2.7 fold.

For B6, the “fold change of affinity for CD3” value stood at 1.6 fold.

On to B7, for which the “fold change of affinity for CD3” value amounted to 0.2 fold. As to B8, the “fold change of affinity for CD3” value came to 10.6 fold. Regarding B9, the “fold change of affinity for CD3” value came to 0.5 fold.

B10: the “fold change of affinity for CD3” value came out at 0.7 fold. As for B11, the “fold change of affinity for CD3” value was 0.2 fold. Same read-out and setting: the figure for B12 is 0.7 fold; for B13 it is 1.5 fold; for B14 it is 0.4 fold.
